Drawing on article PMC3887004, this text covers run length λ of Qdot-labelled myosin moving along immobilised actin filaments (stepping assay) for one substance.

In the experiment the target is F-actin (actin from rabbit skeletal muscle) (rabbit) (UniProt P68135).

Substance “Myo IX headΔext (motor domain lacking the N-terminal extension) (domain or fragment)” registered a run length λ of Qdot-labelled myosin moving along immobilised actin filaments (stepping assay) of 2.9 µm.
